Measured values taken from patent US20220057415A1, “METHOD FOR DETECTING ALLERGIC DISEASES” (The University of Tokyo, priority 2018, published 2022).

Key:
BALB/C mice [1] = test: Measurement of nasal cavity volume by computed tomography; assay type: in vivo
Experimental: To 23 BALB/C mice (female, 5 weeks old) (CLEA Japan, Inc., the same applies hereinafter), 50 μg of ovalbumin (manufactured by Sigma, sometimes abbreviated as “OVA” herein) dissolved and diluted with physiological saline (manufactured by Otsuka Pharmaceutical Co., Ltd.) and 1 mg of aluminum potassium sulfate (manufactured by Sigma-Aldrich Co. LLC.) were intraperitoneally administered simultaneously, and, after two weeks, 50 μg of OVA was intraperitoneally administered again for sensitization. […]
The nasal cavity volume of the AR model mice prepared in Example 1 was measured by computed tomography before the administration of OVA (6 mice), 24 hours after the fifth administration of OVA (6 mice), and 24 hours after the tenth administration of OVA (6 mice). As a control, the nasal cavity volume of the solvent-administered group prepared in Example 1 was measured in the same manner as above before the administration of the solvent (6 mice), 24 hours after the fifth administration of the solvent (6 mice), and 24 hours after the tenth administration of the solvent (6 mice). […] From the captured image, regions having a CT value of −900 to −300 HU (Hounsfield unit) were decided as the nasal cavities, and their volume was measured.

BALB/C mice [2] = test: Evaluation of sneezing symptom; assay type: in vivo
Experimental: (§1) To 23 BALB/C mice (female, 5 weeks old) (CLEA Japan, Inc., the same applies hereinafter), 50 μg of ovalbumin (manufactured by Sigma, sometimes abbreviated as “OVA” herein) dissolved and diluted with physiological saline (manufactured by Otsuka Pharmaceutical Co., Ltd.) and 1 mg of aluminum potassium sulfate (manufactured by Sigma-Aldrich Co. LLC.) were intraperitoneally administered simultaneously, and, after two weeks, 50 μg of OVA was intraperitoneally administered again for sensitization. Two weeks after the second sensitization, OVA (400 μg/10 μL) was transnasally administered once daily for 5 days (5 times, in total) or 10 days (10 times, in total) for stimulation, thereby preparing allergic rhinitis (sometimes abbreviated as “AR” herein) model mice. […]
For the AR model mice (22 mice) and solvent-administered group (10 mice) prepared in Example 1, the numbers of sneezes for a period of 10 minutes from 1 minute to 11 minutes after each of the first to tenth administrations of OVA or the solvent were counted. For the upper respiratory inflammation model mice (9 mice) and single-time solvent-administered group (6 mice) prepared in Example 1, the numbers of sneezes were counted hourly after the administration of LPS or the solvent (until 10 hours later).

[3] = test system: ovalbumin-specific IgE in serum; test: Ovalbumin-specific IgE level in serum (ELISA); assay type: in vivo, BALB/C mice; conditions: OVA-sensitized mice (two i.p. sensitizations, not stimulated with OVA); not detected in unsensitized group; mean±SD
Experimental: as §1
Antigen sensitization is known to increase the antigen-specific IgE value in serum. To confirm the ovalbumin sensitization of the allergic rhinitis model mice prepared in Example 1 (1), the ovalbumin-specific IgE level in serum was measured. […] The freeze-preserved serum was diluted 25 times, and then the IgE level was measured using Anti-Ovalbumin IgE (mouse) ELISA Kit (manufactured by Cayman Chemical Company) according to the instructions attached to the kit.

BALB/C mice [4] = test: Histopathological count of immunocytes infiltrated into nasal turbinates; assay type: in vivo
Experimental: Specifically, the maxilla was excised from the mice and immediately immersed in 4% paraformaldehyde at 4° C. for 5 days. Then, it was immersed in EDTA every day and decalcified at 4° C. for 10 days. Next, the bone covering the orbit was excised with a razor, dehydrated and cleared, and then embedded in paraffin to prepare continuous section specimens having a width of 4 μm. Hematoxylin-eosin staining (HE staining), chloroacetate-esterase staining (CAE staining), toluidine blue staining (TB staining) or May-Grünwald Giemsa staining (MG staining) was performed according to a conventional method for encapsulation. Specific staining procedures are as will be described below. The stained nasal cavity tissue was observed under an optical microscope (ACT-10, manufactured by Nikon Corporation), and imaged using a digital microscope camera (OPTIPHOT-2, manufactured by Nikon Corporation). The number of immunocytes (connective tissue type mast cells, mucosal type mast cells, eosinophils and neutrophils) in the nasal turbinates (sites where inflammatory cells infiltrate when rhinitis occurs and where many capillaries gather) was counted within 16 to 24 randomly selected areas (magnification: ×400) per section. CAE staining is a staining method in which mast cell-specific esterase is stained red using naphthol AS-D chloroacetate as a substrate. The continuous section specimens prepared in the above item (1) were deparaffinized and used for staining. A 4% sodium nitrite solution and a new fuchsin solution were mixed at a ratio of 1:1, and then this solution and a naphthol solution were mixed at a ratio of 1:9. This solution and phosphate buffer (0.2M NaH2PO4, 0.2M Na2HPO4, pH 7.6) were mixed at a ratio of 1:20, and the sections were immersed for 10 minutes. The sections were washed with distilled water and then counterstained with a hematoxylin solution. The total number of the mast cells (connective tissue type mast cells and mucosal type mast cells) present in the connective tissue and mucosal tissue within 1 mm^2 was counted to calculate the mean value and standard deviation. TB staining stains acidic mucous polysaccharides. Acidic mucous polysaccharides are present in the connective tissue type mast cells and absent in the mucosal type mast cells. The continuous section specimens prepared in the above item (1) were deparaffinized and then immersed in a 0.05% toluidine blue solution (pH: 4.1) for 10 minutes. Then, they were decolorized with a 90% alcohol solution and then encapsulated. CAE staining stains both the connective tissue type mast cells and the mucosal type mast cells, whereas TB staining stains only the connective tissue type mast cells. CAE staining and TB staining were performed on different sections, and cells positive for CAE staining and positive for TB staining were decided as connective tissue type mast cells. Also, cells positive for CAE staining and negative for TB staining were decided as mucosal type mast cells. The total number of the connective tissue mast cells or mucosal type mast cells present in the connective tissue and mucosal tissue within 1 mm^2 was counted to calculate the mean value and standard deviation. May-Grünwald Giemsa staining stains eosinophil-specific eosinophilic granules red. The continuous section specimens prepared in the above item (1) were deparaffinized and then immersed in a May-Grünwald staining solution for 6 minutes. Then, the sections were washed with 1/15 M-phosphate buffer (×10) (0.2M NaH2PO4, 0.2M Na2HPO4, pH 6.4 to 6.8). Thereafter, the sections were immersed for 3 minutes in a solution obtained by mixing a Giemsa staining solution and distilled water at a ratio of 1:20. HE staining and MG staining were performed on different sections, and cells confirmed to have a multilobed nucleus by HE staining and positive for MG staining were decided as eosinophils. Also, cells have a multilobed nucleus by HE staining and negative for MG staining were decided as neutrophils. […]

[5] = 10-time OVA-administered group vs 10-time solvent-administered group

B1: OVA: ovalbumin (manufactured by Sigma), antigen used for sensitization and stimulation of the allergy models (protein, UniProt P01012 2-386, looked up)
Ovalbumin: GSIGAASMEFCFDVFKELKVHHANENIFYCPIAIMSALAMVYLGAKDSTRTQINKVVRFDKLPGFGDSIEAQCGTSVNVHSSLRDILNQITKPNDVYSFSLASRLYAEERYPILPEYLQCVKELYRGGLEPINFQTAADQARELINSWVESQTNGIIRNVLQPSSVDSQTAMVLVNAIVFKGLWEKAFKDEDTQAMPFRVTEQESKPVQMMYQIGLFRVASMASEKMKILELPFASGTMSMLVLLPDEVSGLEQLESIINFEKLTEWTSSNVMEERKIKVYLPRMKMEEKYNLTSVLMAMGITDVFSSSANLSGISSAESLKISQAVHAAHAEINEAGREVVGSAEAGVDAASVSEEFRADHPFLFCIKHIATNAVLFFGRCVSP
BALB/C mice [1]; 5-time OVA-administered group, 24 hours after fifth administration
  nasal cavity volume: decreased
BALB/C mice [1]; 10-time OVA-administered group, compared with before the administration of OVA
  nasal cavity volume: significantly decreased
BALB/C mice [2]; allergic rhinitis model mice, from the first transnasal administration of OVA
  frequency of sneezing: observed to increase
BALB/C mice [2]; fifth administration of OVA, compared with solvent-administered group, maintained until tenth administration
  number of sneezes for 10 minutes after administration: significantly increased
[3]
  serum ovalbumin-specific IgE: 23 ± 6.29 ng/mL
BALB/C mice [4]; 5-time OVA-administered group vs 10-time solvent-administered group
  number of eosinophils infiltrated into the nasal turbinates: significant increase
BALB/C mice [4]; 5-time OVA-administered group vs LPS-administered group
  number of infiltrated eosinophils: significantly increased
BALB/C mice [4]; 5-time OVA-administered group, solvent-administered groups and LPS-administered group compared
  number of mucosal type mast cells infiltrated into the nasal turbinates: no significant difference
BALB/C mice [4]; 10-time OVA-administered group vs 5-time OVA-administered group
  number of infiltrated eosinophils: significantly increased
BALB/C mice [4]; [5]
  number of eosinophils infiltrated into the nasal turbinates: significant increase
  number of mucosal type mast cells infiltrated into the nasal turbinates: significant increase
BALB/C mice [4]; OVA-administered groups (5 and 10 times) and solvent-administered groups
  number of neutrophils infiltrated into the nasal turbinate: no significant difference
BALB/C mice [4]; OVA-administered groups (5 and 10 times), solvent-administered groups and LPS-administered group compared
  number of connective tissue type mast cells infiltrated into the nasal turbinates: no significant difference
